To fix the notation:
T1: human DLL3 antigen (human, UniProt Q9NYJ7 27-492, limits assumed)
T1 construct: also called immobilized human DLL3; recombinant human DLL3
T1 sequence (looked up): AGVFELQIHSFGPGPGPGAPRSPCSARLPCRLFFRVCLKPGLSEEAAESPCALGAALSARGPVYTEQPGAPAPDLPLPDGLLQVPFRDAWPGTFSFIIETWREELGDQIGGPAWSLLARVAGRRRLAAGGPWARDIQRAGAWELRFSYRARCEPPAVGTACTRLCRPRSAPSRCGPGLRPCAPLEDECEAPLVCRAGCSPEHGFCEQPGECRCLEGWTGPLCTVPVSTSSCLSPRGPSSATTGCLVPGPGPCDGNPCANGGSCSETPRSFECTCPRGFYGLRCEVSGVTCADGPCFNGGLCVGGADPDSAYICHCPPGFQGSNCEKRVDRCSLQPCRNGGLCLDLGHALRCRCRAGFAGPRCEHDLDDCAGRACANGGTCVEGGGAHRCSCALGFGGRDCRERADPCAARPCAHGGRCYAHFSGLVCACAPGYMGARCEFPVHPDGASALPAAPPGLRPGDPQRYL

B1: SC16.136 (antibody, V domains shown)
VH: EFQLQQSGPELVKPGASVKMSCKASGYTFTSYVMHWVKQKPGQGLEWIGYINPYNDGTKYNEKFKGKATLTSDKSSSTAYMELSSLTSEDSAVYYCARDRSGYEDYYGMDYWGQGTSVTVSS
VL: DIQMTQSPASLSASVGETVTITCRASGNIHNYLAWYQQKQGKSPHLLVYNAKTLADGVPSRFSGSGSGTQYSLKINSLQPEDFGSYYCQHFWSTPWTFGGGTKLEIK
notes: murine mAb
B2: SC16.13 (antibody, V domains shown)
VH: QVTLKESGPGILQPSQTLSLTCSFSGFSLSTSGMGVGWIRQPSGKGLEWLAHIWWDDVKRYNPALKSRLTISKDTSSSQVFLKIASVDTADTATYYCARIVSFDNDVVSAMDYWGQGTSVTVSS
VL: QIVLTQSPALVSASPGEKVTMTCSASSSVSYMYWYQQKPRSSPKPWIYLTSNLASGVPARFSGSGSGTSYSLTISSMEAEDAATYYCQQWRSNPFTFGSGTKLEIK
notes: murine mAb
B3: SC16.137 (antibody, V domains shown)
VH: EVQLVESGGDLVKPGGSLKLSCAASGFTFSSYGMSWVRQTPDKRLEWVATISSGGSYTYYPDSVKGRFTISRDNAKNTLYLQMSSLKSEDTAMYYCARRRADAMDYWGQGTSVTVSS
VL: QIVLTQSPAIMSASLGEEITLTCSASSSVSYMHWYQQKSGTSPKLLIYSTSNLASGVPSRFSGSGSGTFYSLTISSVEAEDAADYYCHQWSSYHTFGGGTKLEIKR
notes: murine mAb
B4: SC16.143 (antibody, V domains shown)
VH: QVQLQQSGPELVKPGASVRISCKASGYTFTSYYIHWVKQRPGQGLEWIGWIYPGNGNTKYNEKFKGKATLTADKSSSTAYMQISSLTSEDSAVYFCARERWLLLWFAYWGQGTLVTVSA
VL: DVLMTQTPLSLPVSLGDQASISCRSSQSIVHSNGNTYLEWYLQKPGQSPKLLIYKVSNRFSGVPDRFSGSGSGTDFTLKISRVEAEDLGVYYCFQGSHVPLTFGAGTKLELK
notes: murine mAb
B5: SC16.148 (antibody, V domains shown)
VH: QIQLVQSGPELKKPGETVKISCKASGYTLTNYGMNWVKQAPGKGLKWMGWINTYTGEPTYADDFKGRFAFSLETSARIVYLQINNLKNEDTATYFCAKYEAHEGFVYWGQGTLVTVSA
VL: QIVLTQSPAIMSASPGEKVTMTCSASSSVSYMYWYQQKPGSSPRLLIYDTSNLASGVPVRFSGSGSGTSYSLTISRMEAEDTATYYCQEWSNNPLTFGDGTKLELK
notes: murine mAb
B6: SC16.142 (antibody, V domains shown)
VH: EVQLQQSGPELVKPGASVKISCKASGYTFTDYNMHWVKQSHGKSLEWIGFFYPYNGNTVYSQKFKSKATLTVDNSSSTAYMELRSLTSEDSAVYYCARLNWEGYWGQGTTLTVSS
VL: DIKMTQSPSSMYASLGERVTITCKASQDINNYLSWFQQKPGKSPKTLIYRANRLVDGVPSRFSGSGSGQDYSLTISSLEYEDMGIYYCLQYDEFPYTFGGGTKLEIKR
notes: murine mAb
B7: SC16.144 (antibody, V domains shown)
VH: QIQLVQSGPELKKPGETVKISCKASGYTFTNYGMNWVKQAPGKGLKWVGWINTYTGEPTYADDFKGRFAFSLETSASTAYLQIDNLKNEDTATYFCARVGDYVGFDYWGQGTTLTVSS
VL: SIVMTQTPKFLLVSAGDRVTITCKASQSVSNDVGWYQQKPGQSPKLLIYYASNRYNGVPDRFTGSGYGTDFTFTISTVQAEDLAVYFCQQDYSSPWTFGGGTKLEIK
notes: murine mAb
B8: SC16.140 (antibody, V domains shown)
VH: QVQLQQSGPELVRPGASVKMSCKASGYTFTSYWMHWVKQRPGQGLEWIGMIDPSNSETRLNQKFKDKATLNVDKSSNTAYMQLSSLTSEDSAVYYCAVMDYYFDYWGQGTTLTVSS
VL: DIVLTQSLASLAVSLGQRATISCRASKSVSTSGYSYMHWYQQKPGQPPKLLIYLASNLESGVPARFSGSGSGTDFTLNIHPVEDEDAATYYCQHSRELPFTFGGGTKLEIKR
notes: murine mAb
B9: SC16.141 (antibody, V domains shown)
VH: QVQLKQSGPGLVAPSQSLFITCTVSGFSLTSYEINWVRQPPGKGLEWLGVIWTGGSTNYNSALISRLSISKDNSKSLVFLKMNSLQTDDTAIYYCVRGVYAMDYWGQGTSVTVSS
VL: DIKMTQSPSSMYASLGERVTITCKASQDINSYLSWFQQKPGKSPKTLIYRANRLVDGVPSRFSGSGSGQDYSLTISSLEYEDMGIYYCLQYDEFPFTFGSGTKLEIK
notes: murine mAb
B10: SC16.147 (antibody, V domains shown)
VH: QIQLVQSGPELTKPGETVKISCKASGYTFTDYSLHWVKQALGKGLKWMGWINTETGEPAYADDFKGRFAFSLETSASTAYLQINDLKNEDTTTYFCGIYDGYAMDYWGQGTSVTVSS
VL: DIQMTQTASSLSASLGDRVTISCRASQDINNYLNWYQQKPDGTVKLLIYYTSRLHSGVPSRFSGSGSGTDYSLTISILEQEDIATYFCQQGDTLPWTFGGGTKLEIK
notes: murine mAb
B11: hSC16.13 (antibody, V domains shown)
VH: QITLKESGPTLVKPTQTLTLTCTFSGFSLSTSGMGVGWIRQPPGKALEWLAHIWWDDVKRYSPSLKSRLTITKDTSKNQVVLTMTNMDPVDTATYYCARIVSFDNDVVSAMDYWGQGTLVTVSS
VL: DIQMTQSPSSLSASVGDRVTITCSASSSVSYMYWYQQKPGKAPKLLIYLTSNLASGVPSRFSGSGSGTDFTLTISSLQPEDFATYYCQQWRSNPFTFGQGTKLEIKR
notes: humanized (CDR grafted)
B12: hSC16.15 (antibody, V domains shown)
VH: QVQLVQSGAEVKKPGASVKVSCKASGYTFTRYWIHWIRQAPGQGLEWMGYINPTTVYTEFNQNFKDRVTMTRDTSTSTVYMELSSLRSEDTAVYYCARGGSNFFDYWGQGTTVTVSS
VL: AIQLTQSPSSLSASVGDRVTITCRASENIYYNLAWYQQKPGKAPKLLIYTANSLEDGVPSRFSGSGSGTDFTLTISSLQPEDFATYFCKQAYDVPPTFGGGTKLEIK
notes: humanized (CDR grafted); also called humanized SC16.15
B13: hSC16.34 (antibody, V domains shown)
VH: QVQLVQSGAEVKKPGASVKVSCKASGYTFTNYGMNWVRQAPGQRLEWMGWINTYTGDPTYADDFKGRVTITRDTSASTAYMELSSLRSEDTAVYYCARIGGNSPSDYWGQGTTVTVSS
VL: DIQMTQSPSSLSASVGDRVTITCKASQSVSNDVAWYQQKPGKVPKLLIYYASNRYSGVPSRFSGSGSGTDFTLTISSLQPEDVATYFCQQDYSSPWTFGGGTKVEIK
notes: humanized (CDR grafted)
B14: hSC16.56 (antibody, V domains shown)
VH: B13 VH with R44G, D57E, I70M, R72T, A76T, S84R, E89D, G101D, N102S, T113L
VL: EIVMTQSPATLSVSPGERATLSCKASQSVSNDVVWYQQKPGQAPRLLIYYASNRYTGIPARFSGSGSGTEFTLTISSLQSEDFAVYYCQQDYTSPWTFGQGTKLEIKR
notes: humanized (CDR grafted)
B15: SC16.15 (antibody, V domains shown)
VH: QVQLQQSGAELAKPGASVKMSCKASGYTFTRYWIHWIKQRPGQGLEWIGYINPTTVYTEFNQNFKDKATLTADKSSTTASMQLSSLTSEDSAVYYCARGGSNFFDYWGQGTTLTVSS
VL: DIQMTQSPASLAASVGETVAITCRASENIYYNLAWYQQKQGKSPQLLIYTANSLEDGVPSRFSGSGSGTQYSLKINSMQPEDSATYFCKQAYDVPPTFGGGTKLEIK
notes: murine mAb

Positions count from the first letter of the chain named.

The first assay addresses T1, human DLL3 antigen. In words: ELISA or flow cytometry screen. For orientation: ELISA stands for enzyme-linked immunosorbent assay.
On to B1, for which the binding result is reported as “binds”.
The same measure, in the same setting: the value for B2 was “binds”; that for B3 was “binds”.
Same read-out and setting: to B4 belongs “binds”; to B5, “binds”.
The same measure, in the same setting: to B6 belongs “binds”.
Take B7: the binding result is “binds”.
Same read-out and setting: the value for B8 was “binds”; that for B9 was “binds”; that for B10 was “binds”.

The next assay concerns the target T1, human DLL3 antigen. Nature of the assay: SPR, Biacore 2000, human DLL3 antigen.
Description: Various methods were used to analyze the binding and immunochemical characteristics of selected DLL3 modulators generated as set forth above. […] Affinities and kinetic constants kₒₙ and koff of the selected modulators were measured using bio-layer interferometry analysis on a ForteBio RED (ForteBio, Inc.) or surface plasmon resonance using a Biacore 2000 each according to the manufacturer's instructions.
(§1) In this respect the humanized constructs (CDR grafted) were compared with “traditional” chimeric antibodies comprising the murine parent (or donor) heavy and light chain variable domains and a human constant region substantially equivalent to that used in the humanized constructs. With these constructs surface plasmon resonance (SPR) was conducted using a Biacore 2000 (GE Healthcare) to identify any subtle changes in rate constants brought about by the humanization process.
In the case of B11, the binding result was “binds”.
On the same count and under the same terms, to B12 belongs “binds”; to B13, “binds”.
On the same count and under the same terms, the value for B14 was “binds”.

For a further assay, the target named is T1, human DLL3 antigen. Nature of the assay: SPR, Biacore 2000, 25 and 12.5 nM human DLL3 antigen, 1:1 Langmuir model. On the technique in general: Surface plasmon resonance follows binding to a sensor surface in real time, without labels.
Description: as §1
For B15, the dissociation constant (Kd) is ~200 pM.

Broadly, the Kd is the concentration at which binding is half-saturated. Low values mean tighter binding, high ones weaker binding.

The values are drawn from patent US20140370037A1 (published 2014).
